# Results published in article PMC10716051, “Cryo-EM reveals how Hsp90 and FKBP immunophilins co-regulate the glucocorticoid receptor” (Nature Structural & Molecular Biology, 2023).
# T1: human FKBP51 (human, UniProt Q13451 1-457)
# T1 construct: FKBP51, human; The His6 tag is cleavable; source: bacterial expression plasmid pET151, purified
# T1 sequence: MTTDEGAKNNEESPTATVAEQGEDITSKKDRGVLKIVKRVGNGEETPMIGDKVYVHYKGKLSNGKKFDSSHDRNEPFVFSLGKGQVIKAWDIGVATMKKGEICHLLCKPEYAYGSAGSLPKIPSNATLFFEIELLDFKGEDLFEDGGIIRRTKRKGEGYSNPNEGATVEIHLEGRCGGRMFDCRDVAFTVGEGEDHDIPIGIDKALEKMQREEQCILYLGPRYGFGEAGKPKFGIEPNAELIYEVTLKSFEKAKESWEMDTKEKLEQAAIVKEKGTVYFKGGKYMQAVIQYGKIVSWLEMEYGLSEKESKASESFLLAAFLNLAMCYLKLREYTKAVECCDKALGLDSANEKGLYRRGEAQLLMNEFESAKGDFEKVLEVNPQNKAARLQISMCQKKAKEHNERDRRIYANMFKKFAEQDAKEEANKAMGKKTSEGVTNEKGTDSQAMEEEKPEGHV
# B1: human FKBP52 (natural protein)
# chain: MTAEEMKATESGAQSAPLPMEGVDISPKQDEGVLKVIKREGTGTEMPMIGDRVFVHYTGWLLDGTKFDSSLDRKDKFSFDLGKGEVIKAWDIAIATMKVGEVCHITCKPEYAYGSAGSPPKIPPNATLVFEVELFEFKGEDLTEEEDGGIIRRIQTRGEGYAKPNEGAIVEVALEGYYKDKLFDQRELRFEIGEGENLDLPYGLERAIQRMEKGEHSIVYLKPSYAFGSVGKEKFQIPPNAELKYELHLKSFEKAKESWEMNSEEKLEQSTIVKERGTVYFKEGKYKQALLQYKKIVSWLEYESSFSNEEAQKAQALRLASHLNLAMCHLKLQAFSAAIESCNKALELDSNNEKGLFRRGEAHLAVNDFELARADFQKVLQLYPNNKAAKTQLAVCQQRIRRQLAREKKLYANMFERLAEEENKAKAEASSGDHPTDTEMKEEQKSNTAGSQSQVETEA
# notes: FKBP52 (gene FKBP4), human; The His6 tag is cleavable; source: bacterial expression plasmid pET151, purified
# Columns and labels:
# Conditions in all cases: both partners purified
# human FKBP52 = target: B1; test: cryo-EM structure; GR chaperone cycle reconstituted in vitro from purified components (GR DBD-LBD, Hsp70, Hsp40, Hop, Hsp90, p23, Bag-1) with FKBP52; 20 mM sodium molybdate; pulldown on MBP-GR DBD-LBD, size exclusion, 0.02% glutaraldehyde crosslinking; datasets I and II
# human Hsp90α = target: T2, human Hsp90α (human, UniProt P07900 1-732); test: as above
# T2 construct: Hsp90α, human; also called Hsp90A; Hsp90B (the two protomers of the dimer)
# human FKBP51 = target: T1, human FKBP51; test: cryo-EM structure; GR chaperone cycle reconstituted in vitro from purified components (GR DBD-LBD, Hsp70, Hsp40, Hop, Hsp90, p23, Bag-1) with FKBP51; 20 mM sodium molybdate; pulldown on MBP-GR DBD-LBD, size exclusion, 0.02% glutaraldehyde crosslinking; datasets III and IV
binding result (human FKBP52),binding result (human Hsp90α),binding result (human FKBP51),Binder
binds,binds,binds,"human GR DBD-LBD (residues 418-777, F602S) (domain or fragment, UniProt P04150 418-777, looked up, glucocorticoid receptor, human; codon optimized; The His6-MBP tag is cleavable; the complex was pulled down on MBP-GR DBD-LBD; Only the LBD was visible in the maps; also called glucocorticoid receptor; MBP-GR DBD-LBD; source: E. coli BL21 star (DE3), purified (Ni-NTA, size exclusion); not shown: MBP, N-terminal, kept) PKLCLVCSDEASGCHYGVLTCGSCKVFFKRAVEGQHNYLCAGRNDCIIDKIRRKNCPACRYRKCLQAGMNLEARKTKKKIKGIQQATTGVSQETSENPGNKTIVPATLPQLTPTLVSLLEVIEPEVLYAGYDSSVPDSTWRIMTTLNMLGGRQVIAAVKWAKAIPGFRNLHLDDQMTLLQYSWMSLMAFALGWRSYRQSSANLLCFAPDLIINEQRMTLPCMYDQCKHMLYVSSELHRLQVSYEEYLCMKTLLLLSSVPKDGLKSQELFDEIRMTYIKELGKAIVKREGNSSQNWQRFYQLTKLLDSMHEVVENLLNYCFQTFLDKTMSIEFPEMLAEIITNQIPKYSNGNIKKLLFHQK"
–,binds,–,B1
